According to patent US20220298475A1:

Columns and labels:
[1] = target: LCMV Gp61-80 peptide … presented by MHC-II of dendritic cells (lymphocytic choriomeningitis virus (LCMV)); experiment: cell-based or functional assay
[2] = target: SIINFEKL N4 peptide (OVA257-264) presented on MHC-I H-2Kb of dendritic cells (mouse); experiment: cell-based or functional assay

Chain of LCMV Gp61-80 peptide … presented by MHC-II of dendritic cells (lymphocytic choriomeningitis virus (LCMV)) (P07399 61-80): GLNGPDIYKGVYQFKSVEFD

Substance | percentage of OT-II CD4+ T cells biotinylated by peptide-pulsed DC-FT [1] | signal-to-background ratio of biotin labeling on OT-I CD8+ cells (iDC-FT pulsed with 10 nM peptide, flow cytometry) (ratio (signal:background)) [2] | signal-to-background ratio of biotin labeling on OT-I CD8+ cells (iDC-FT pulsed with 100 nM peptide, flow cytometry) (ratio (signal:background)) [2] | signal/background ratio of biotinylated OT-I CD8+ T cells, DC-FT made by Method 1 (background: DC-enzyme primed with LCMV GP33-41) [2] | signal/background ratio of biotinylated OT-I CD8+ T cells, DC-NHS-FT made by Method 2 (background: DC-enzyme primed with LCMV GP33-41) [2] | streptavidin-APC+ OT-I CD8+ cells, DC-FT made by Method 1 [2] | streptavidin-APC+ OT-I CD8+ cells, DC-NHS-FT made by Method 2 [2]
TCR of OT-II CD4+ T cells, specific for the OVA323-339 peptide | 1.68% |  |  |  |  |  | 
transgenic T cell receptor (TCR) of OT-I CD8+ T cells, specific for the SIINFEKL N4 of ovalbumin presented on MHC I |  | 10 | 66 | 592 | 9.2 | 77% | 16%
